Experimental data as given in article PMC8179133, “PilB from Streptococcus sanguinis is a bimodular type IV pilin with a direct role in adhesion” (Proceedings of the National Academy of Sciences of the …, 2021).

Tests used:
[1] = target: fibronectin from human plasma (human); experiment: ELISA; putative ligands (5 µg/mL in carbonate-bicarbonate buffer, 50 µL) adsorbed on MaxiSorp plates O/N at 4 °C; blocked 1 h with 3% BSA or 1% gelatin in PBS; serial twofold dilutions of 6His-PilB (40 to 0.625 µg/mL) for 2 h at 37 °C; detected with anti-6His antibody and HRP-linked anti-rabbit IgG, read at 450 nm; Kd by nonlinear regression (One site - Total and nonspecific binding) with BSA or gelatin as nonspecific binding control
[2] = target: fibrinogen from human plasma (human, UniProt P02671 36-866; P02675 45-491; P02679 27-453, Plasma-purified disulfide-linked (AalphaBbetagamma)2 hexamer, N-glycosylated on the beta and gamma chains, fibrinopeptides A and B retained. Limits are not printed. The alpha chain is taken as the mai); experiment: ELISA; putative ligands (5 µg/mL in carbonate-bicarbonate buffer, 50 µL) adsorbed on MaxiSorp plates O/N at 4 °C; blocked 1 h with 3% BSA or 1% gelatin in PBS; serial twofold dilutions of 6His-PilB (40 to 0.625 µg/mL) for 2 h at 37 °C; detected with anti-6His antibody and HRP-linked anti-rabbit IgG, read at 450 nm; Kd by nonlinear regression (One site - Total and nonspecific binding) with BSA or gelatin as …; settings: both partners purified
fibrinogen from human plasma, sequence (P02671 36-866, chain 1 of 3): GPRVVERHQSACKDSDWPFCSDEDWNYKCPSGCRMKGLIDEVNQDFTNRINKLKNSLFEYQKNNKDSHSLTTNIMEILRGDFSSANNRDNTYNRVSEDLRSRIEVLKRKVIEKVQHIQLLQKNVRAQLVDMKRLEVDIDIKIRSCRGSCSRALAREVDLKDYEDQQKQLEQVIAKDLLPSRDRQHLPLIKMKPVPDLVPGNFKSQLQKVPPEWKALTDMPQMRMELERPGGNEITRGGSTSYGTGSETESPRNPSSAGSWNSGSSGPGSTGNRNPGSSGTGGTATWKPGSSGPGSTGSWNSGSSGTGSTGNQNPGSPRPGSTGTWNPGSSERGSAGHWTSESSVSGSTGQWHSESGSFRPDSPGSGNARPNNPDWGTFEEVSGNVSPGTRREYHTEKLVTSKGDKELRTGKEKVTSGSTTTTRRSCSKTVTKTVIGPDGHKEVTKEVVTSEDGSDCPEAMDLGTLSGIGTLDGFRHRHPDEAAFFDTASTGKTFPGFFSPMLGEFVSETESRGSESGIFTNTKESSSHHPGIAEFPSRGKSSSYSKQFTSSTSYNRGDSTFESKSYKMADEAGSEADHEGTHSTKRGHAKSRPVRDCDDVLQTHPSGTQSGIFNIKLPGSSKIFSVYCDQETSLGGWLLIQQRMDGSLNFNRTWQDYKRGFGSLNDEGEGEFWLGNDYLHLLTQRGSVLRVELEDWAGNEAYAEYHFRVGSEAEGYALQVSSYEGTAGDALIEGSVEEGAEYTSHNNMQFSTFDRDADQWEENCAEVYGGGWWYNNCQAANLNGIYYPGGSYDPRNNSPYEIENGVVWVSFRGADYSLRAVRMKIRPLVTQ
fibrinogen from human plasma, sequence (P02675 45-491, chain 2 of 3): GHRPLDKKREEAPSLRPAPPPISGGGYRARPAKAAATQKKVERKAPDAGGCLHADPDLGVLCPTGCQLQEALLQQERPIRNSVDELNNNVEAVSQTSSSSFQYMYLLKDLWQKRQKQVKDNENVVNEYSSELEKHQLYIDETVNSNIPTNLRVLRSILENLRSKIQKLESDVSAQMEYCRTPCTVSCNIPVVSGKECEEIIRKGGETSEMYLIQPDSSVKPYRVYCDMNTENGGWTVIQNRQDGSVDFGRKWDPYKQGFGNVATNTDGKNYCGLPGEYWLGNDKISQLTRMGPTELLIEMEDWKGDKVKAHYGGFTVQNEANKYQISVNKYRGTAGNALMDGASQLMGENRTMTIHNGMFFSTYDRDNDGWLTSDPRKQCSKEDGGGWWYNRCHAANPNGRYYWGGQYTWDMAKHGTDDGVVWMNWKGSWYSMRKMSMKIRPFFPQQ
fibrinogen from human plasma, sequence (P02679 27-453, chain 3 of 3): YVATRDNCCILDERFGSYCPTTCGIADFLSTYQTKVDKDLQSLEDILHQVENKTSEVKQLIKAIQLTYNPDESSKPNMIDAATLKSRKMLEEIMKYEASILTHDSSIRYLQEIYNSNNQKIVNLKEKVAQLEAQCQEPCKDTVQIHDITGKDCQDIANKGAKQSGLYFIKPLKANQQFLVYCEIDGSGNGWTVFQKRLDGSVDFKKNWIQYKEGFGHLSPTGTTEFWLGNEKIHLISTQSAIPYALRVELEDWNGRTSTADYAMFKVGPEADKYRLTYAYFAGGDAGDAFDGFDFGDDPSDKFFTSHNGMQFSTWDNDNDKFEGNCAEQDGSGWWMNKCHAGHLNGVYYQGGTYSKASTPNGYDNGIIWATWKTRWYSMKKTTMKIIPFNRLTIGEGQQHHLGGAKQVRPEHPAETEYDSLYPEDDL

6His-PilB_(36-461) (from UniProt A0A0B7GP99 36-461) (domain or fragment)
Kd [1]: 494 nM

PilBvWA (from UniProt A0A0B7GP99 192-461) (domain or fragment)
Kd [1]: 997 nM

B1: 6His-PilB_(36-461) (domain or fragment)
chain: SSRELIEREASIQAEMRTSMQYVDRTVGKATSIFILDDSKFKGSKQGLTREWSYIGLSADGKKVMNYVWNKQKQDWDVSELGTKSLYNMKLDLEFKTEGAYQDNRLISYNLTGKYPDTNNKLGIDTAISALNTKQVFSKVAKGKKGIAIAYRTDPIQGQMNIAVSFVFDTSGSMDWDLQGRNVKKTGNESRMDILRKKSVIMIKDLAEIGNISVNLVGFSTSAKYIQQNFSNLDNGTNTIIATITKRENLNPDGVTNPGDGLRYGMISLQSQPAQLKYIVLLTDGIPNAYLVDSRALYAGNRVDLSQGAGRVTFNNPIYDLSPTLGYEYSRLGYDLYSRDSITRENSIAYAGEVSKKFGLGIKRVNVIGFSGVNHEIAYGQSLTDRIGEGGMETKYVSATNEEALQKTFSDIKKQIQQDLWFVSGP
notes: pilin module, short loop and vWA module; 48.4 kDa; synthetic gene codon optimized for E. coli; The 6His tag is noncleavable; also called native PilB; soluble portion of PilB; not shown: 6His, N-terminal, kept
Kd [2]: 865 nM

B2: PilBvWA (domain or fragment)
chain: QGQMNIAVSFVFDTSGSMDWDLQGRNVKKTGNESRMDILRKKSVIMIKDLAEIGNISVNLVGFSTSAKYIQQNFSNLDNGTNTIIATITKRENLNPDGVTNPGDGLRYGMISLQSQPAQLKYIVLLTDGIPNAYLVDSRALYAGNRVDLSQGAGRVTFNNPIYDLSPTLGYEYSRLGYDLYSRDSITRENSIAYAGEVSKKFGLGIKRVNVIGFSGVNHEIAYGQSLTDRIGEGGMETKYVSATNEEALQKTFSDIKKQIQQDLWFVSGP
notes: PilB of Streptococcus sanguinis 2908, residues 192-461: only the von Willebrand factor A-like (vWA) module; expressed from pET28-pilB192-461; also called vWA module of PilB; PilB 192-461; source: E. coli BL21(DE3), purified; not shown: 6His, N-terminal, kept
Kd [2]: 337 nM
